Reference: patent US7943358B2, “Polymerase enhancing factor (PEF) extracts, PEF protein complexes, isolated PEF protein, and methods for purifying and identifying” (Agilent Technologies, Inc., priority 1997, dated 2011)

Experiments:
Assay type in all cases: biochemical
[1] = test system: gapped-duplex calf thymus DNA; assay: DNA polymerase activity, gapped-duplex calf thymus DNA assay; settings: 30 minutes at 72° C.
Protocol: Initially and as a control to confirm the activity of the DNA polymerase used, gapped-duplex calf thymus DNA (Pharmacia) assays were performed. The polymerase cocktail contained 50 mM Tris-HCl, pH 8.0, 5 mM MgCl2, 1 mM DTT, 50 μg/m BSA, 4% glycerol, 200 μM each dNTP, [^3H]TTP (0.5 mCi·μmole final concentration), and 250 μg/ml of activated calf thymus DNA (Pharmacia). Samples containing Pfu DNA polymerase or P. furiosus PEF were serially diluted in Pfu DNA polymerase storage buffer (50 mM Tris-HCl, pH 8.2, 0.1% NP-40, 0.1% Tween-20, 0.1 mM EDTA, 1 mM DTT, 50% glycerol) and then 1 μl of each dilution was added to 10 μl aliquots of polymerase cocktail. Polymerization reactions were conducted in triplicate for 30 minutes at 72° C. The extension reactions were quenched on ice, and then 5 μl aliquots were spotted immediately onto DE81 filters (Whatman). Unincorporated [^3H]TTP was removed by 6 washes with 2×SCC (0.3M NaCl, 30 mM sodium citrate, pH 7.0), followed by one wash with 100% ethanol. Incorporated radioactivity was measured by scintillation counting. The assay was calibrated by counting a known amount of [^3H]TTP on DE-81 filters, omitting the wash steps. One unit of polymerase activity is defined as the amount of enzyme which catalyzes the incorporation of 10 nmoles of total dNTP into polymeric form (binds to DE-81 paper) in 30 minutes at 72° C. […]

[2] = PCR cycling of dCTP in the presence of PEF or Pfu DNA polymerase, HPLC; settings: 10 mM dCTP, 1.25 U Pfu/μl
[3] = biological target: T1, cloned Pfu DNA polymerase (Pyrococcus furiosus, UniProt P61875); assay: 6.2 kb primer-template PCR enhancing assay; settings: protein concentrations comparable to or greater than gel-purified PEFs
T1 sequence (P61875 1-775): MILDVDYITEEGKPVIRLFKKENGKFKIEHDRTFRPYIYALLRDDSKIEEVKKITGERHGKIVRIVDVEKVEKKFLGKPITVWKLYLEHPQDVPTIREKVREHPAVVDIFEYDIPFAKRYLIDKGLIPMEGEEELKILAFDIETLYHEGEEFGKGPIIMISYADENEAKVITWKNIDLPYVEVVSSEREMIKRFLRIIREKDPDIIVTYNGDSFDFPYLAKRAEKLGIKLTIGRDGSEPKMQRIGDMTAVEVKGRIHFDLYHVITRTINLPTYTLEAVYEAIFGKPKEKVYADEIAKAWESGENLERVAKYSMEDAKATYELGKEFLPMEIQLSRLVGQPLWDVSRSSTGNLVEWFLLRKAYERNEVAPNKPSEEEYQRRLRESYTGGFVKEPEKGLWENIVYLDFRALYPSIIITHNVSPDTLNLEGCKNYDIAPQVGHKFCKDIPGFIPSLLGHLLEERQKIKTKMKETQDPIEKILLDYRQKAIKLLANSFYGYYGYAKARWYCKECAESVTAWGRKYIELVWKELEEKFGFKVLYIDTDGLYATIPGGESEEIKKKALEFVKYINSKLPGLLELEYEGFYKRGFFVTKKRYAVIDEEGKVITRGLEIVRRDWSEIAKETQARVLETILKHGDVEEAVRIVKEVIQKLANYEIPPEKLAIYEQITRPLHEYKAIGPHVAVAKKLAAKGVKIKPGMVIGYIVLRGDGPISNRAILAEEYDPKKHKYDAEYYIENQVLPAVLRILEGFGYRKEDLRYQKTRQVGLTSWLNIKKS
Protocol: One embodiment of an assay used to screen for PEFs, in this case from Pyrococcus furiosus, involved amplifying a 6.2 kb target from transgenic mouse DNA (6.2 kb primer-template assay). A master PCR cocktail was prepared consisting of: 200 μM each dNTP, 2 μg/ml primer F432-21 (5′-CTA-TTG-AGT-ACG-AAC-GCC-ATC) (SEQ ID NO.: 62), 2 μg/ml primer R6656-20 (GTC-ACG-CTT-GCT-CCA-CTC-CG) (SEQ ID NO: 63), 2.5 μg/ml λAA742 DNA (transgenic mouse DNA having 40 copies of a lambda phage DNA shuttle vector), 1× cloned Pfu DNA polymerase PCR buffer (10 mM KCl, 10 mM (NH4)2SO4, 20 mM Tris-HCl (pH 8.8), 2 mM MgSO4, 0.1% (v/v) Triton X-100, and 100 μg/ml BSA), and 25 U/ml cloned Pfu DNA polymerase. Samples were diluted in 1× cloned Pfu DNA polymerase PCR buffer, and 1 μl of each diluted sample was added to 24 μl of the PCR cocktail. PCR amplifications were conducted on the RoboCycler 96 Temperature Cycler (Stratagene), using the following conditions: 96° C. for 45 s (1 cycle)/96° C. for 45 s; 60° C. for 45 s; 72° C. for 14 min. (35 cycles)/72° C. for 10 min. (1 cycle). PCR products (10 μl/lane) are run out on 1% agarose gels and PCR product bands visualized by ethidium bromide staining. […] When PCR enhancement is due to the presence of PEFs, rather than contaminating endogenous DNA polymerase activity, amplifications performed in the absence of […] yield no PCR product. Moreover, PCR amplifications performed in the absence of exogenous DNA template should yield no PCR product when the PEF sample lacks contaminating target DNA.

B1: Pfu DNA polymerase: DNA polymerase of Pyrococcus furiosus (protein, UniProt P61875 1-775, looked up)
DNA polymerase: MILDVDYITEEGKPVIRLFKKENGKFKIEHDRTFRPYIYALLRDDSKIEEVKKITGERHGKIVRIVDVEKVEKKFLGKPITVWKLYLEHPQDVPTIREKVREHPAVVDIFEYDIPFAKRYLIDKGLIPMEGEEELKILAFDIETLYHEGEEFGKGPIIMISYADENEAKVITWKNIDLPYVEVVSSEREMIKRFLRIIREKDPDIIVTYNGDSFDFPYLAKRAEKLGIKLTIGRDGSEPKMQRIGDMTAVEVKGRIHFDLYHVITRTINLPTYTLEAVYEAIFGKPKEKVYADEIAKAWESGENLERVAKYSMEDAKATYELGKEFLPMEIQLSRLVGQPLWDVSRSSTGNLVEWFLLRKAYERNEVAPNKPSEEEYQRRLRESYTGGFVKEPEKGLWENIVYLDFRALYPSIIITHNVSPDTLNLEGCKNYDIAPQVGHKFCKDIPGFIPSLLGHLLEERQKIKTKMKETQDPIEKILLDYRQKAIKLLANSFYGYYGYAKARWYCKECAESVTAWGRKYIELVWKELEEKFGFKVLYIDTDGLYATIPGGESEEIKKKALEFVKYINSKLPGLLELEYEGFYKRGFFVTKKRYAVIDEEGKVITRGLEIVRRDWSEIAKETQARVLETILKHGDVEEAVRIVKEVIQKLANYEIPPEKLAIYEQITRPLHEYKAIGPHVAVAKKLAAKGVKIKPGMVIGYIVLRGDGPISNRAILAEEYDPKKHKYDAEYYIENQVLPAVLRILEGFGYRKEDLRYQKTRQVGLTSWLNIKKS
In the case of B1, the “specific activity (DNA polymerase)” value [1] is reported as 2-4×10^4 u/mg, the “change in dCDP, dCMP or dUTP produced when dCTP cycled with Pfu DNA polymerase” value [2] is reported as “no difference” and the “PCR enhancing activity (in words)” value [3] is reported as “lacks PCR enhancing activity”.
